Columns and labels:
Test in all cases: cleavage_in_vitro
[1] = system: T1, OMNI-95 (metagenomic, unknown); conditions: TXTL; PAM NNGYAANN
T1 sequence: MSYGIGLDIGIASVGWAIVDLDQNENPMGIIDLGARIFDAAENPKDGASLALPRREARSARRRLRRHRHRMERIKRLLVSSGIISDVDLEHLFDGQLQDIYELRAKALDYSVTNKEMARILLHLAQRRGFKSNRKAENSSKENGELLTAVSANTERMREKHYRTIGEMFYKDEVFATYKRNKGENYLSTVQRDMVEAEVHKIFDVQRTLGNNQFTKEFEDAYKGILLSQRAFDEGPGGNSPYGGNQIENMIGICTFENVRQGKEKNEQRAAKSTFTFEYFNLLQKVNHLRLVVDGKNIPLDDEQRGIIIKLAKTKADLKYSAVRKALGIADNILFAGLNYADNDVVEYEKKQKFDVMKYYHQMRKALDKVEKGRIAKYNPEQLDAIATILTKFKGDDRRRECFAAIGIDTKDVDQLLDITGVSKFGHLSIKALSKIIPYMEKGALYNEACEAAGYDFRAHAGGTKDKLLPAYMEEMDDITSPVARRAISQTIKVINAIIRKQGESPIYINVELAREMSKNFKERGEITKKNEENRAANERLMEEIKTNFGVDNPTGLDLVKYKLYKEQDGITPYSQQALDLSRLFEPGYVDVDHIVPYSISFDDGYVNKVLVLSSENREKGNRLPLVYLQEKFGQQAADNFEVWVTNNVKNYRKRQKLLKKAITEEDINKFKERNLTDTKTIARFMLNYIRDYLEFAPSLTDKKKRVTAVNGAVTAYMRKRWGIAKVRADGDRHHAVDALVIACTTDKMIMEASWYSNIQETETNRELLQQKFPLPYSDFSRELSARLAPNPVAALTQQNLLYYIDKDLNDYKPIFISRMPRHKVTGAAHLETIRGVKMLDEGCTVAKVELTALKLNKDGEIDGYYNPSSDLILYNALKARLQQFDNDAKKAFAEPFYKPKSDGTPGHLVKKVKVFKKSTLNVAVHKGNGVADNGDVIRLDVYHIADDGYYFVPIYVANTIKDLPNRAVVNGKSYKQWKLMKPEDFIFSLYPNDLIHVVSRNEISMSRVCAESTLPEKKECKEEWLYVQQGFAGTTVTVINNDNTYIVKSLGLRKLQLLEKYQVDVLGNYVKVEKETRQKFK

[2] = system: T2, OMNI-94 (metagenomic, unknown); conditions: TXTL; PAM NNRRAYGN
T2 sequence: T1 sequence

[3] = system: T3, OMNI-138 (metagenomic, unknown); conditions: TXTL; PAM NNNNGTKA
T3 sequence: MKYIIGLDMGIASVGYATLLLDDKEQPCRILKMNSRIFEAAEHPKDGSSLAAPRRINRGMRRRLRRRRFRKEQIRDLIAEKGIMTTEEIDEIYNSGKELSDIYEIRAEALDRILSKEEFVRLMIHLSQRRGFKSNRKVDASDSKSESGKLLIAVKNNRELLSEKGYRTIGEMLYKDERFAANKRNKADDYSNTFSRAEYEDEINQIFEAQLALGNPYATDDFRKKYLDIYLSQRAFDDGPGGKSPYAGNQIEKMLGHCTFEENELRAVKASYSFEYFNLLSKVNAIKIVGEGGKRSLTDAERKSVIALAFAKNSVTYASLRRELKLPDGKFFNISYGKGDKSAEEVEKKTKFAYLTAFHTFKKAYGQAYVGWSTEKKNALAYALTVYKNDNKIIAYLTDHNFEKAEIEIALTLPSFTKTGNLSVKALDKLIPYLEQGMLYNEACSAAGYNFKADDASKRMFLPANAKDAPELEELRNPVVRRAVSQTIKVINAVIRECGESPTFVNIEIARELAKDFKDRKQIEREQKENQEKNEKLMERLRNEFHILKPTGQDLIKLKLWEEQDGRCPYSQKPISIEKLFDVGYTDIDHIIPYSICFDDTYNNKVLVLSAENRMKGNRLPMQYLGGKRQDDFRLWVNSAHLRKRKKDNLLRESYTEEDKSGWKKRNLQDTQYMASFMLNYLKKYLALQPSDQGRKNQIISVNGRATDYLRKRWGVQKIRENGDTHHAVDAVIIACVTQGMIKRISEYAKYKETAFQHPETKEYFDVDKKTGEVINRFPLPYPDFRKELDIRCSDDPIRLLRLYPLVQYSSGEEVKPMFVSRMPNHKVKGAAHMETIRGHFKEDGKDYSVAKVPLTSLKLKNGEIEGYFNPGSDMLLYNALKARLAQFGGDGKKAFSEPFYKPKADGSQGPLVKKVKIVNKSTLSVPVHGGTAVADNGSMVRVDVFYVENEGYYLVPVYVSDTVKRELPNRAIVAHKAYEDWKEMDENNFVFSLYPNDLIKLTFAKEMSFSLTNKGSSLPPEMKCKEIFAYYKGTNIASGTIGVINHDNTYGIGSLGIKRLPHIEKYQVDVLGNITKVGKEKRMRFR

[4] = system: T4, OMNI-137 (metagenomic, unknown); conditions: TXTL; PAM NNRCRGNN
T4 sequence: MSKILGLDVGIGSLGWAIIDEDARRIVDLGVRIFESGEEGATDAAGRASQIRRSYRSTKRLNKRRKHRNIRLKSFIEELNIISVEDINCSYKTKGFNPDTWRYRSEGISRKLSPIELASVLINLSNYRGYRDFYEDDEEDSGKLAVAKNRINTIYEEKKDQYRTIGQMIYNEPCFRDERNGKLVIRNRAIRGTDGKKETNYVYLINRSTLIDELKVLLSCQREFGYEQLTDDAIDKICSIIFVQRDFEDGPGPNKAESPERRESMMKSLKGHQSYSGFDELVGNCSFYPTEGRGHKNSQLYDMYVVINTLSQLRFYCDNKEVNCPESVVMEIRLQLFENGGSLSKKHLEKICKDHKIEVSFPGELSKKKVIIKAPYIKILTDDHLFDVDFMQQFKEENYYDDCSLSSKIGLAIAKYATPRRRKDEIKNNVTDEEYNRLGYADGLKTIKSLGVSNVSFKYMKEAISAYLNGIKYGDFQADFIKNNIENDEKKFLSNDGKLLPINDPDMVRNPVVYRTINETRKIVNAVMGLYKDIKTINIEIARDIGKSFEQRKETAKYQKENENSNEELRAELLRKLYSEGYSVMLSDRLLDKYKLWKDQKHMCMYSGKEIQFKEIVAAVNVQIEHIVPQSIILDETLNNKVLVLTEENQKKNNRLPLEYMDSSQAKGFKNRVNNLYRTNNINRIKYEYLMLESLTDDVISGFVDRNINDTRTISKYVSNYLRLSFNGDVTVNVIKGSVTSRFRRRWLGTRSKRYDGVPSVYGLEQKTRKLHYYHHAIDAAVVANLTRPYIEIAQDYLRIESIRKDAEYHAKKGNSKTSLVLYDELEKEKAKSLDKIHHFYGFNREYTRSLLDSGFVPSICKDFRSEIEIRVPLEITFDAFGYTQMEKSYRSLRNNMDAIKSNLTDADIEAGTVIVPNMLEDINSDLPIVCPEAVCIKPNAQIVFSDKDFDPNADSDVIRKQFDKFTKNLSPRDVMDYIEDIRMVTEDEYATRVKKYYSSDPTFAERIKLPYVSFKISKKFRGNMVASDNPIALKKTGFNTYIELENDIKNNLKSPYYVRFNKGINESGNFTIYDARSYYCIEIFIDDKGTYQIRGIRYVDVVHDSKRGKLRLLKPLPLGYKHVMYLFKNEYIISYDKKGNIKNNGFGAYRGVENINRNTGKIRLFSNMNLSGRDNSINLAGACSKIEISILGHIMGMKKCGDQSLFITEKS

GGAAGAGCAGAGCCUUGGUCUCAUUUUAGUACCUGGAGAAAGAAAUUUCUUCAGACCUACUAAAACAAGGCUUUAUGCCGAAAGUUUUUUUGAUUUGAAUUGAAUGAGUUGAAAGAGGAUGCCGACGGGUGUCCUCUUUUUUU / GGAAGAGCAGAGCCTTGGTCTCNNNNNNNN / NNNNNNNNGAGACCAAGGCTCTGCTCTTCC [T2 sgRNA 6 V1 ; T2 protospacer + 8N PAM library (pbPOS T2)]
activity (1-depletion score) [1]: 0.77

GGAAGAGCAGAGCCUUGGUCUCGUUGUAGCUCCCUGUUAAUGAAAACUAACAGGUUACUACAAUAAGGUCUUAGGACCGCAAAGCUCUAUCGCCCUACAUCCGUAGGGCGAUAUCUUUUUAUACAUUUUUU / GGAAGAGCAGAGCCTTGGTCTCNNNNNNNN / NNNNNNNNGAGACCAAGGCTCTGCTCTTCC [T2 sgRNA 5 V1 ; T2 protospacer + 8N PAM library (pbPOS T2)]
activity (1-depletion score) [2]: 0.69

GGAAGAGCAGAGCCUUGGUCUCGUUGUAGUUCCCUAAUUAUGAAAACAAUUAGGUUACUAUGAUAAGGUAGUAUACCGCAAAGCUCUAACGCCUCAUCUUAAUGAUGGGGCGUUAUCUUUUUU / GGAAGAGCAGAGCCTTGGTCTCNNNNNNNN / NNNNNNNNGAGACCAAGGCTCTGCTCTTCC [T2 sgRNA 38 V1 ; T2 protospacer + 8N PAM library (pbPOS T2)]
activity (1-depletion score) [3]: 0.97

GGAAGAGCAGAGCCUUGGUCUCGUUUUAGUUCUCGGACGAAAGUCCGAGAAUCUAAGAUAAAGCUAUAUGCUGUGGGGUUGCGUAUCCCCUUAUCGAACGUACUAAGAUGAGUUUCGGCUCAUCUUUUUU / GGAAGAGCAGAGCCTTGGTCTCNNNNNNNN / NNNNNNNNGAGACCAAGGCTCTGCTCTTCC [T2 sgRNA 37 V1 ; T2 protospacer + 8N PAM library (pbPOS T2)]
activity (1-depletion score) [4]: 0.97

From patent publication US20240425885
